In patent US20250027068:
Changes are numbered by the printed parent chain.

Columns and labels:
[1] = target: pooled human IgG (human IgG1, 2, 3 and 4)
[2] = target: pooled human IgG (human IgG1,2,3 and 4)

B1: PRT-245 (protein)
chain: MVTSVWTKGVTPPANFTQGEDVFHAPYVANQGWYDITKLFNGKDDLLCGAATAGNMLHWWFDQNKDQIKRYLEEHPEKQKINFNGEQMFDVKEAIDTKNHQLDSKLFEYFLEKAFPNLSTKHLGVFPDHVIDMFINGYRLSLLNHGPTPVKEGSKDPRGGIFDAVFTRGDQSKLLTSRHDFKEKNLKEISDLIKKELTEGKALGLSHTYANGRINHVINLWGADFDSNGNLKAIAVTDSDSNASIGMKKYFVGVNSSGKVAISAKEIKEDNIGAQVLGLFTLSTGQDSWNQTN
[1]
  Enzyme Activity Endpoint Assay: Fab′2: 423 ng/µL
  Enzyme Activity Endpoint Assay: Fc: 277 ng/µL
  Enzyme Activity Endpoint Assay: IgG: 46 ng/µL
  Enzyme Activity Endpoint Assay: scIgG: 204 ng/µL

B2: PRT-261 (protein)
chain: MVTSVWTKGVTPPTNFTYGEDVLHAPYVANQGWYDITKLFNGKDNLLCGAATAGNMLHWWFDQNKEQIENYLKKHPEKQKINFNGEQLFDVKEAIDTKDSQLDSKLFDYFKEKAFPNLSTKHLGVFPDHVIDMFINGYRLSLLNHGPTPVKRGSKDKRGGIFDAVFTRGVQSKLLTNRHDFKEKTLKEISDLIKQELTEGKALGISHTYANGRINHVINLWGADFDAEGNLEAIYVTDSDTNPSIGMKKYFVGVNSSGKVAISAKEIEEDNIGAQVLGLFTLSTGQDIWNQTN
[1]
  Enzyme Activity Endpoint Assay: Fab′2: 0 ng/µL
  Enzyme Activity Endpoint Assay: Fc: 76 ng/µL
  Enzyme Activity Endpoint Assay: IgG: 615 ng/µL
  Enzyme Activity Endpoint Assay: scIgG: 317 ng/µL

B3: PRT-526 (protein)
chain: MANQEIRYSEETPKTITSVWTKGVTPPTDFIKNEDVLHAPYIANQGWYDITKTFNGKDDLLCGAATAGNMLHWWFDQNKEEIERYLKKHPEKQKINFNGEQMFDVKEAIDTKDSQTDSALFEYFKDKAFPNLSTKHLGVMPDHVLDMFINGYYLSLGKHGPTPVKRGTKDPRGGIFDAVFTRGDQSKLLTSRHDFKEKTLKEISDLIKQELTEGKALALSHTYANVRINHVINLWGADFDSEGNLEAIYVTDSDSNASIGMKKYYVGVNSAGKVAISAKEIEGDNIGAQVLGLFTLSTGQDIWEQTNLEHHHHHH
[1]
  Enzyme Activity Endpoint Assay: Fab′2: 246 ng/µL
  Enzyme Activity Endpoint Assay: Fc: 379 ng/µL
  Enzyme Activity Endpoint Assay: IgG: 110 ng/µL
  Enzyme Activity Endpoint Assay: scIgG: 627 ng/µL

B4: PRT-375 (protein)
chain: MSQTEDSESLQRLRDIEDFQAEKKKQNVVYTKWLDGVDVKDHDFRKIVDGNEAYYATPLLNGRGFYDINKDFNRDNDKCAAAVAANMFHYWLDRNRDNVDRFLRQNPEKHGIIELPDGQLKLSDFLNTYESDDGYRDKSKLFDFISENFNGPVWTDKLLDNYINGYAYNYKYGRLIEDSTKNTSKINFFKEVFNEKILTNNHSIRNQNELSVLLSEALYTGKAIGLSYGPAGTRHSLGHIISVWGADLDADGNVVAIYVTDSDDKKLTIGDERVGLKRYKISTDDEGRLRLTAYEETHNTGGQIRGLWTLDTGKQAWADYFDKTEQTGTDQAEQ
[1]
  Enzyme Activity Endpoint Assay: Fab′2: 170 ng/µL
  Enzyme Activity Endpoint Assay: Fc: 115 ng/µL
  Enzyme Activity Endpoint Assay: IgG: 0 ng/µL
  Enzyme Activity Endpoint Assay: scIgG: 180 ng/µL

B5: PRT-253 (protein)
chain: MVTSVWTKGVTPPTNFTYGEDVLHAPYVANQGWYDITKTFNGKDDLLCGAATAGNMLHWWFDQNKEQIENYLKKHPEKQKINFNGEQMFDVKEAIDTKDSQLDSKLFEYFLEKAFPNLSTKHLGVFPDHVIDMFINGYRLSLLNHGPTPVKRGSKDPRGGIFDAVFTRGDQSKLLTNRHDFKEKTLKEISDLIKQELTEGKALGISHTYANVRINHVINLWGADFDAEGNLEAIYVTDSDSNKSIGMKKYFVGVNSDGKVAISAKEIEEDNIGAQVLGLFTLSTGQDIWNQTN
[1]
  Enzyme Activity Endpoint Assay: Fab′2: 912 ng/µL
  Enzyme Activity Endpoint Assay: Fc: 334 ng/µL
  Enzyme Activity Endpoint Assay: IgG: 0 ng/µL
  Enzyme Activity Endpoint Assay: scIgG: 0 ng/µL

B6: PRT-269 (protein)
chain: B5 chain with N15D, T17I, V28K, N30G, F181L, E183N, Y235A, K243A, D257S
[1]
  Enzyme Activity Endpoint Assay: Fab′2: 98 ng/µL
  Enzyme Activity Endpoint Assay: Fc: 189 ng/µL
  Enzyme Activity Endpoint Assay: IgG: 86 ng/µL
  Enzyme Activity Endpoint Assay: scIgG: 592 ng/µL

B7: PRT-191 (protein)
chain: MANQEIRYSEVTPYHVTSVWTKGVTPPANFTQGEDVFHAPYVANQGWYDITKTFNGKDDLLCGAATAGNMLHWWFDQNKDQIKRYLEEHPEKQKINFNGEQMFDVKEAIDTKNHQLDSKLFEYFKEKAFPYLSTKHLGVFPDHVIDMFINGYRLSLTNHGPTPVKEGSKDPRGGIFDAVFTRGDQSKLLTSRHDFKEKNLKEISDLIKKELTEGKALGLSHTYANVRHSINHVINLWGADFDSNGNLKAIYVTDSDSNASIGMKKYFVGVNSAGKVAISAKEIKEDNIGAQVLGLFTLSTGQDSWNQTN
[2]
  Enzyme Activity Endpoint Assay: Fab'2: 36 ng/µL
  Enzyme Activity Endpoint Assay: Fc: 183 ng/µL
  Enzyme Activity Endpoint Assay: IgG: 161 ng/µL
  Enzyme Activity Endpoint Assay: scIgG: 358 ng/µL

B8: PRT-553 (protein)
chain: MANQEIRYSEETPKTITSIWTKGVTPPTDFIKNEDVLHAPYVANQGWYDITKTFNGKDDLLCGAATAGNMLHWWFDQNKEEIENYLKKHPEKQKINFNGEQMFDVKEAIDTKDSQTDSKLFEYFKDKAFPYLSTKHLGVFPDHVIDMFINGYRLSLTNHGPTPVKRGTKDPRGGIFDAVFTRGDQTKLLTERHDFKEKTLNEISDLIKQELTEGKALGLSHTYANVRINHVINLWGADFNSEGNLEAIYVTDSDSNASIGMKKYYVGVNAAGKVAISAKEIEDDNIGAQVLGLFTLSTGKDIWEQTNLEHHHHHH
[1]
  Enzyme Activity Endpoint Assay: Fab′2: 79 ng/µL
  Enzyme Activity Endpoint Assay: Fc: 229 ng/µL
  Enzyme Activity Endpoint Assay: IgG: 111 ng/µL
  Enzyme Activity Endpoint Assay: scIgG: 764 ng/µL

B9: PRT-533 (protein)
chain: MANQEIRYSSDSEWANKKVWVYGITPPEEGAWKYSTYYLPWKKEYGWYDCNKRNPTADGMMCWAATASNLLHWWIAQNKEYIDLYGDKYKGPDKINFNGEQMFDVKEYIDPLDKPQESDIFQCFIDKSFADLSTKHEAGYGDAGINWFIHGIIPSSPAHGPTPVKLDYPYNPAGYFKDVFPRGDGVVLLGNNGDFKELSKERFNETIKDALKNKKAIGLSIGPVNVRSSHVVTIWGAEFDENGDVSYIYMADNNDRWGVGCIRYQIVYEEGGTYTCYKTEIIPSDRPIPINRLVTLELGEEYWKQTNLEHHHHHH
[1]
  Enzyme Activity Endpoint Assay: Fab′2: 0 ng/µL
  Enzyme Activity Endpoint Assay: Fc: 0 ng/µL
  Enzyme Activity Endpoint Assay: IgG: 1140 ng/µL
  Enzyme Activity Endpoint Assay: scIgG: 0 ng/µL

B10: PRT-582 (protein)
chain: MANQEIRYSKAKPKVITSVWTKGVTPPTQFTKNEDVFHAPYLANQGWYDITKTFNGKDDLLCGAATAGNMLHWWFDQNKEQIERYLKKHPEKQKINFNGEQMFDVKEAIDTKDSQTNSKLFNYFKDKAFPYLSTKHLGVFPDHVIDMFINGYRLSLTNHGPTPVKEQNKDPRGGIFDDVFTRGDQSKLLTSRHDFKEKTLKEISDLIKQELKEGKALGLSHTYANVRINHVINLWGADFDAEGNLVAIYVTDSDSNASIGMKKYYVGVNSAGKVAISAKEIEDDNIGAQVLGLFTLSTGKDIWEKTNLEHHHHHH
[1]
  Enzyme Activity Endpoint Assay: Fab′2: 28 ng/µL
  Enzyme Activity Endpoint Assay: Fc: 183 ng/µL
  Enzyme Activity Endpoint Assay: IgG: 329 ng/µL
  Enzyme Activity Endpoint Assay: scIgG: 754 ng/µL

B11: PRT-586 (protein)
chain: MANQEIRYSEETPKTITSVWTKGVTPPTDFIYNEDVLHAPYIANQGWYDITKTFNGKDDLLCGAATAGNMLHWWFDQNKEQIERYLKKHPEKQKINFNGEQMFDVKEAIDTKDSQTDSKLFEYFKDKAFPYLSTKHLGVFPDHVIDMFINGYRLSLTNHGPTPVKRGTKDPRGGIFDAVFTRGDQSKLLTSRHDFKEKTLNEISDLIKQELTEGKALGLSHTYANVRINHVINLWGADFNAEGNLEAIYVTDSDSNASIGMKKYYVGVNSAGKVAISAKEIEGDNIGAQVLGLFTLSTGQDIWEQTNLEHHHHHH
[1]
  Enzyme Activity Endpoint Assay: Fab′2: 478 ng/µL
  Enzyme Activity Endpoint Assay: Fc: 322 ng/µL
  Enzyme Activity Endpoint Assay: IgG: 77 ng/µL
  Enzyme Activity Endpoint Assay: scIgG: 458 ng/µL

B12: PRT-576 (protein)
chain: B11 chain with E10K, E11A, K14S, T28E, D29N, I42L, D117N, R166E, G167Q, E304Q
[1]
  Enzyme Activity Endpoint Assay: Fab′2: 903 ng/µL
  Enzyme Activity Endpoint Assay: Fc: 365 ng/µL
  Enzyme Activity Endpoint Assay: IgG: 0 ng/µL
  Enzyme Activity Endpoint Assay: scIgG: 0 ng/µL

B13: PRT-566 (protein)
chain: B11 chain with K14S, D29Q, Y32Q, R84N, K119A, E304N
[1]
  Enzyme Activity Endpoint Assay: Fab′2: 621 ng/µL
  Enzyme Activity Endpoint Assay: Fc: 366 ng/µL
  Enzyme Activity Endpoint Assay: IgG: 0 ng/µL
  Enzyme Activity Endpoint Assay: scIgG: 0 ng/µL

B14: PRT-595 (protein)
chain: B11 chain with K14S, Y32Q, R84N, K119A, T199N, E304N
[1]
  Enzyme Activity Endpoint Assay: Fab′2: 1040 ng/µL
  Enzyme Activity Endpoint Assay: Fc: 452 ng/µL
  Enzyme Activity Endpoint Assay: IgG: 0 ng/µL
  Enzyme Activity Endpoint Assay: scIgG: 0 ng/µL

B15: PRT-192 (protein)
chain: MANQEIRYSEVTPYHVTSVWTKGVTPPANFTQGEDVFHAPYVANQGWYDITKTFNGKDDLLCGAATAGNMLHWWFDQNKDQIKRYLEEHPEKQKINFNGEQMFDVKEAIDTKNHQLDSKLFEYFKEKAFPYLSTKHLGVFPDHVIDMFINGYRLSLTNHGPTPVKEGSKDPRGGIFDAVFTRGDQSKLLTSRHDFKEKNLKEISDLIKKELTEGKALGLSHTYANVRINHVINLWGADFDSNGNLKAIYVTDSDDKKLTISNASIGMKKYFVGVNSAGKVAISAKEIKEDNIGAQVLGLFTLSTGQDSWNQTN
[2]
  Enzyme Activity Endpoint Assay: Fab'2: 24 ng/µL
  Enzyme Activity Endpoint Assay: Fc: 204 ng/µL
  Enzyme Activity Endpoint Assay: IgG: 109 ng/µL
  Enzyme Activity Endpoint Assay: scIgG: 461 ng/µL

B16: PRT-193 (protein)
chain: B15 chain with S261G, N262D, A263E, S264R
[2]
  Enzyme Activity Endpoint Assay: Fab'2: 39 ng/µL
  Enzyme Activity Endpoint Assay: Fc: 193 ng/µL
  Enzyme Activity Endpoint Assay: IgG: 181 ng/µL
  Enzyme Activity Endpoint Assay: scIgG: 355 ng/µL
